The values that follow come from FireProtDB (doi:10.1016/0022-2836(92)90562-x).

The chains are these.
B1: Ribonuclease, P00648 (parent)
chain: MMKMEGIALKKRLSWISVCLLVLVSAAGMLFSTAAKTETSSHKAHTEAQVINTFDGVADYLQTYHKLPDNYITKSEAQALGWVASKGNLADVAPGKSIGGDIFSNREGKLPGKSGRTWREADINYTSGFRNSDRILYSSDWLIYKTTDHYQTFTKIR

Variants of B1 are the subject of this series. Particulars: Bacillus amyloliquefaciens; pH 6.3; 25 °C; Urea; Fluorescence; MES-NaOH 450 mM; reversible: yes; structure 1BNI; whole UniProt chain shown.

I156V: the “ddG of mutation (higher = less stable)” value was found to be 0.81 kcal/mol, the denaturant m value stood at 1.92 kcal/mol/M, the “denaturant midpoint (higher = more stable)” value (shortened to “denaturant midpoint”) stood at 4.1 M and the unfolding free energy stood at 8.01 kcal/mol.

As for I156A, the “ddG of mutation (higher = less stable)” value is 1.27 kcal/mol, the denaturant m value was 2.15 kcal/mol/M, the “denaturant midpoint” value was found to be 3.5 M and the unfolding free energy amounted to 7.55 kcal/mol.

Regarding S138A, the “ddG of mutation (higher = less stable)” value was 2.41 kcal/mol, the denaturant m value was found to be 1.79 kcal/mol/M, the “denaturant midpoint” value turned out to be 3.5 M and the unfolding free energy turned out to be 6.41 kcal/mol.

Regarding L136V, the “ddG of mutation (higher = less stable)” value came to 0.47 kcal/mol, the denaturant m value was determined as 1.89 kcal/mol/M, the “denaturant midpoint” value amounted to 4.4 M and the unfolding free energy worked out at 8.35 kcal/mol.

Turning to L136T, the “ddG of mutation (higher = less stable)” value was found to be 3.28 kcal/mol, the denaturant m value is 1.78 kcal/mol/M, the “denaturant midpoint” value was determined as 3.1 M and the unfolding free energy worked out at 5.54 kcal/mol.

Turning to T146V, the “ddG of mutation (higher = less stable)” value worked out at 2.92 kcal/mol, the denaturant m value is 1.84 kcal/mol/M, the “denaturant midpoint” value turned out to be 3.2 M and the unfolding free energy was determined as 5.9 kcal/mol.

For Y150F, the “ddG of mutation (higher = less stable)” value came out at 0.18 kcal/mol, the denaturant m value turned out to be 1.89 kcal/mol/M, the “denaturant midpoint” value came to 4.5 M and the unfolding free energy was 8.64 kcal/mol.

For I143A, the “ddG of mutation (higher = less stable)” value is 3.15 kcal/mol, the denaturant m value turned out to be 1.96 kcal/mol/M, the “denaturant midpoint” value worked out at 2.8 M and the unfolding free energy amounted to 5.67 kcal/mol.

I143V: the “ddG of mutation (higher = less stable)” value worked out at 1.02 kcal/mol, the denaturant m value worked out at 1.9 kcal/mol/M, the “denaturant midpoint” value worked out at 4.1 M and the unfolding free energy amounted to 7.8 kcal/mol.

S139A: the “ddG of mutation (higher = less stable)” value amounted to 3.22 kcal/mol, the denaturant m value is 1.78 kcal/mol/M, the “denaturant midpoint” value turned out to be 3.1 M and the unfolding free energy stood at 5.6 kcal/mol.

As to T152V, the “ddG of mutation (higher = less stable)” value was 2.14 kcal/mol, the denaturant m value amounted to 1.95 kcal/mol/M, the “denaturant midpoint” value is 3.4 M and the unfolding free energy came to 6.68 kcal/mol.

As for R157A, the “ddG of mutation (higher = less stable)” value is -0.07 kcal/mol, the denaturant m value was found to be 2.03 kcal/mol/M, the “denaturant midpoint” value was 4.3 M and the unfolding free energy worked out at 8.89 kcal/mol.
